Experimental data published in IntAct's records for PubMed 21441902.

B1: mRNA export factor GLE1 (Saccharomyces cerevisiae), Q12315 (parent)
chain: MRFVFDEVFNSDTDSPEFEETCSTTSSTSSQCPTPEPSPAIKLPSFTKVGTKKLVNESVVILDPALENALRDLNLQSKLIPINEPIVAASSIIVPHSTNMPLPRASHSSLLDNAKNSNATAPLLEAIEESFQRKMQNLVLANQKEIQSIRENKRRVEEQRKRKEEEERKRKEAEEKAKREQELLRQKKDEEERKRKEAEAKLAQQKQEEERKKIEEQNEKERQLKKEHEAKLLQQKDKLGKAVTNFDKISKMFWHYKDKIAQIKQDIVLPIKKADVNVRNLLSRHKRKINPKFGQLTNSNQQLFKIQNELTQLINDTKGDSLAYHWILNFIAKAVVHQAETEVRVKPESALPLGKLTLYLLVQFPELQELFMARLVKKCPFVIGFTCEIDTEKGRQNMGWKRNNENKWEDNTSYDERMGGILSLFAIITRLQLPQEFITTTSHPFPIALSWHILARICNTPLNLITNTHFVILGSWWDAAAVQFLQAYGNQASKLLILIGEELTSRMAEKKYVGAARLRILLEAWQNNNMESFPEMSP
partner: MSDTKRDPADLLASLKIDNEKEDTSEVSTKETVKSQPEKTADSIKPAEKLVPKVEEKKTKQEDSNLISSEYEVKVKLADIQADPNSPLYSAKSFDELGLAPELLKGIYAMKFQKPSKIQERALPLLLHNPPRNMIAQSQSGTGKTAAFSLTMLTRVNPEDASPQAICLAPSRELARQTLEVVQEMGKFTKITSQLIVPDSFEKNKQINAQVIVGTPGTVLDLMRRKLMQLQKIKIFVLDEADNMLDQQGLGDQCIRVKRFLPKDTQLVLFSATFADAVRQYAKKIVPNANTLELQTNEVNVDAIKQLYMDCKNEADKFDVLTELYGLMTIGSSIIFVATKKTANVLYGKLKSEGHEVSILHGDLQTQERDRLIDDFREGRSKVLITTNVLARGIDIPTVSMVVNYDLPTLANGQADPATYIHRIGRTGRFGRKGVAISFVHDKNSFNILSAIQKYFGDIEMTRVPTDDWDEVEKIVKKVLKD
B2: ATP-dependent RNA helicase DBP5 (Saccharomyces cerevisiae), P20449 (parent)
chain: B1 partner
partner: B1 chain

Variants of: B1
Conditions: with dbp5_yeast DBP5, P20449

Variant | effect of a mutation on the interaction
V513D;A516D;I520D | disrupting interaction

Variants of: B2
Conditions: with gle1_yeast GLE1, Q12315

Variant | effect of a mutation on the interaction
L327V;K477A;K481A | disrupting interaction
